The test deals with T1, Nat1 (LTIITLE) (also: TFA salt).
T1 peptide: LTIITLE
Description: cell-based or functional assay.

Non-standard residues stand in square brackets, D forms with d. No end group written: not given here. hArg = N=C(N)NCCCC[C@H](N)C(=O)O; Chg = N[C@H](C(=O)O)C1CCCCC1; NMeK = CN[C@@H](CCCCN)C(=O)O; Phg = N[C@H](C(=O)O)c1ccccc1

LFRYYQK: the “IC50, Thiofiavin T aggregation assay” value turned out to be 100 nM.

As for [dH][dW][dR][dY][dH][dR][dR] [hwryhrr], the “IC50, Thiofiavin T aggregation assay” value worked out at 139 nM.

As to [dR][dI][dR][dW][dY][dW][dK] [rirwywk], the “IC50, Thiofiavin T aggregation assay” value turned out to be 110 nM.

As for YTIQLWH, the “IC50, Thiofiavin T aggregation assay” value was determined as 46000 nM.

For IRIRHYRP, the “IC50, Thiofiavin T aggregation assay” value was found to be 142 nM.

As for [dR][dQ][dW][dY][dH][dW][dR] [rqwyhwr], the “IC50, Thiofiavin T aggregation assay” value was found to be 132 nM.

As for IRIRAYR, the “IC50, Thiofiavin T aggregation assay” value is 23 nM.

Turning to [dK][dY][dR][dW][dY][dR][dH] [kyrwyrh], the “IC50, Thiofiavin T aggregation assay” value was determined as 87 nM.

On to ARIRRYR, for which the “IC50, Thiofiavin T aggregation assay” value amounted to 144 nM.

As to LWIKYHR, the “IC50, Thiofiavin T aggregation assay” value was 76 nM.

[dH][dQ][dR][dY][dY][dW][dR] [hqryywr]: the “IC50, Thiofiavin T aggregation assay” value is 138 nM.

In the case of [dK][dW][dR][dW][dY][dR][dR] [kwrwyrr], the “IC50, Thiofiavin T aggregation assay” value stood at 75 nM.

For IR[Chg]RRYR [Ile-Arg-Chg-Arg-Arg-Tyr-Arg], the “IC50, Thiofiavin T aggregation assay” value came to 81 nM.

[dF][dW][dR][dW][dH][dR] [fwrwhr]: the “IC50, Thiofiavin T aggregation assay” value came out at 88 nM.

Regarding [dF][dF][dR][dF][dH][dR][dR] [ffrfhrr], the “IC50, Thiofiavin T aggregation assay” value is 104 nM.

Consider LTIRYYK, for which the “IC50, Thiofiavin T aggregation assay” value was determined as 93 nM.

Take [dW][dW][dR][dW][dY][dR][dR] [wwrwyrr]: the “IC50, Thiofiavin T aggregation assay” value came out at 78 nM.

As for WTIKLWH, the “IC50, Thiofiavin T aggregation assay” value worked out at 84 nM.

Take [dS][dF][dW][dY][dK][dR][dR] [sfwykrr]: the “IC50, Thiofiavin T aggregation assay” value was determined as 116 nM.

For [dR][dF][dE][dF][dR][dH][dR] [rfefrhr], the “IC50, Thiofiavin T aggregation assay” value came out at 117 nM.

In the case of LRIYRVR, the “IC50, Thiofiavin T aggregation assay” value worked out at 81 nM.

LYIRYLR: the “IC50, Thiofiavin T aggregation assay” value came out at 70 nM.

As for IRIRRYR, the “IC50, Thiofiavin T aggregation assay” value amounted to 27 nM.

As for [dK][dL][dK][dK][dL][dH] [klkklh], the “IC50, Thiofiavin T aggregation assay” value was found to be 71 nM.

As to IR[Phg]RRYR [Ile-Arg-Phg-Arg-Arg-Tyr-Arg], the “IC50, Thiofiavin T aggregation assay” value was 124 nM.

With IRIRRWR, the “IC50, Thiofiavin T aggregation assay” value amounted to 76 nM.

As for [dH][dQ][dR][dR][dY][dQ][dR] [hqrryqr], the “IC50, Thiofiavin T aggregation assay” value turned out to be 39100 nM.

As to IRIRRYE, the “IC50, Thiofiavin T aggregation assay” value came out at 32800 nM.

IAIRRYR: the “IC50, Thiofiavin T aggregation assay” value amounted to 74 nM.

For I[hArg]I[hArg]RYR [Ile-homoArg-Ile-homoArg-Arg-Tyr-Arg], the “IC50, Thiofiavin T aggregation assay” value was determined as 30 nM.

Consider [dH][dL][dR][dI][dW][dR][dN] [hlriwrn], for which the “IC50, Thiofiavin T aggregation assay” value came to 97 nM.

On to LRI[NMeK]YHR [LRI(N-Me)KYHR], for which the “IC50, Thiofiavin T aggregation assay” value came out at 125 nM.

On to RFYRYLR, for which the “IC50, Thiofiavin T aggregation assay” value was determined as 107 nM.

Regarding LRIRFFR, the “IC50, Thiofiavin T aggregation assay” value was 90 nM.

For [dR][dW][dH][dW][dH][dW][dR] [rwhwhwr], the “IC50, Thiofiavin T aggregation assay” value was 145 nM.

Consider [dY][dQ][dW][dR][dH][dW][dR] [yqwrhwr], for which the “IC50, Thiofiavin T aggregation assay” value is 112 nM.

On to [dR][dF][dY][dR][dR][dH][dR] [rfyrrhr], for which the “IC50, Thiofiavin T aggregation assay” value came out at 81 nM.

For the molecule LRIKYHR, the “IC50, Thiofiavin T aggregation assay” value was determined as 71 nM.

In the case of LVIRYHR, the “IC50, Thiofiavin T aggregation assay” value turned out to be 101 nM.

On to YRLRYLR, for which the “IC50, Thiofiavin T aggregation assay” value was determined as 99 nM.

Regarding LRIRRYR, the “IC50, Thiofiavin T aggregation assay” value is 76 nM.

With [dY][dQ][dY][dY][dY][dQ][dR] [yqyyyqr], the “IC50, Thiofiavin T aggregation assay” value worked out at 118 nM.

Turning to [dL][dW][dR][dR][dY][dH][dR] [lwrryhr], the “IC50, Thiofiavin T aggregation assay” value was 108 nM.

On to [dR][dW][dY][dW][dH][dH][dR] [rwywhhr], for which the “IC50, Thiofiavin T aggregation assay” value was found to be 115 nM.

The values are drawn from patent US20200062804A1 (ADRX, published 2020).
